Laboratory results: doi:10.1101/2020.10.19.344861 (bioRxiv, 2020)

B1: cherry-core (CC) of CynR, effector binding domain (domain or fragment, Escherichia coli, UniProt P27111 59-299, looked up)
chain: DAGEVWRQYASRALQELGAGKRAIHDVADLTRGSLRIAVTPTFTSYFIGPLMADFYARYPSITLQLQEMSQEKIEDMLCRDELDVGIAFAPVHSPELEAIPLLTESLALVVAQHHPLAVHEQVALSRLHDEKLVLLSAEFATREQIDHYCEKAGLHPQVVIEANSISAVLELIRRTSLSTLLPAAIATQHDGLKAISLAPPLLERTAVLLRRKNSWQTAAAKAFLHMALDKCAVVGGNESR
B2: CynR (full length) (natural protein, Escherichia coli, UniProt P27111 1-299, looked up)
chain: MLSRHINYFLAVAEHGSFTRAASALHVSQPALSQQIRQLEESLGVPLFDRSGRTIRLTDAGEVWRQYASRALQELGAGKRAIHDVADLTRGSLRIAVTPTFTSYFIGPLMADFYARYPSITLQLQEMSQEKIEDMLCRDELDVGIAFAPVHSPELEAIPLLTESLALVVAQHHPLAVHEQVALSRLHDEKLVLLSAEFATREQIDHYCEKAGLHPQVVIEANSISAVLELIRRTSLSTLLPAAIATQHDGLKAISLAPPLLERTAVLLRRKNSWQTAAAKAFLHMALDKCAVVGGNESR

Biological target: the molecule itself
Assay: SEC-MALS

Protein	stoichiometry N
B1	2
B2	4
